The nature of the series: self-splicing fitness, log relative to wild type (ln ratio); higher = more splicing; Tetrahymena group I intron in knt gene, E. coli kanamycin selection, DiMSum; sequences stand for … in CUCUCU…GGAGGGAAAAGUUAUCAGGCAUGCACCUGGUAGCUAGUCUUUAAACCAAUAGAUUGCAUCGGUUUAAAAGGCAAGACCGUCAAAUUGCGGGAAAGGGGUCAACAGCCGUUCAGUACCAAGUCUCAGGGGAAACUUUGAGAUGGCCUUGCAAAGGGUAUGGUAAUAAGCUGACGGACAUGGUCCUAACCACGCAGCCAAGUCCUAAGUCAACAGAUCUUCUGUUGAUAUGGAUGCAGUUCACAGACUAAAUGUCGGUCGGGGAAGAUGUAUUCUUCUCAUAAGAUAUAGUCGGACCUCUCCUUAAUGGGAGCUAGCGGAUGAAGUGAUGCAACACUGGAGCCGCUGGGAACUAAUUUGUAUGCGAAAGUAUAUUGAUUAGUUUUGGAGUACUCGUGGUCG
In a few lines:
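Library with all eight P1ex-region intron nucleotides randomised, intron inside the knt kanamycin-resistance gene on pET-22b(+), in E. coli BL21(DE3). Cells grew overnight at 37°C or 30°C on LB agar with or without 25 μg/mL kanamycin (plus 100 μg/mL carbenicillin, 50 μM IPTG, 0.2% rhamnose), in six replicate transformations. Pooled colonies were amplicon-sequenced on Illumina HiSeq 2500. DiMSum fitness is the error-weighted combination of wild-type-normalised replicate fold changes, kanamycin versus none.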

± gives the uncertainty stated by the source.

Consider CCACAGCAAUAUUACGUCGU, for which the “self-splicing fitness (ln)” value (30 °C) is -4.38 ± 0.17 and the “self-splicing fitness (ln)” value (37 °C) was -3.14 ± 0.17.

Regarding UUCCAGCAAUAUUACGCCCC, the “self-splicing fitness (ln)” value (30 °C) is -2.4 ± 0.25.

In the case of UCCAAGCAAUAUUACGAAGU, the “self-splicing fitness (ln)” value runs as follows: (30 °C) -1.09 ± 0.14; (37 °C) -1.57 ± 0.15.

On to CCAAAGCAAUAUUACGUAGG, for which the “self-splicing fitness (ln)” value is, setting by setting: (30 °C) -3.85 ± 0.18; (37 °C) -1.66 ± 0.12.

In the case of CUUUAGCAAUAUUACGCCUC, where the note is “37 °C”, the “self-splicing fitness (ln)” value is -1.99 ± 0.43.

Turning to AUGAAGCAAUAUUACGCCGG, the “self-splicing fitness (ln)” value was -0.936 ± 0.11 (30 °C) and 0.108 ± 0.18 (37 °C).

Take UCUGAGCAAUAUUACGUUGG: the “self-splicing fitness (ln)” value is -0.956 ± 0.13 (30 °C) and -0.905 ± 0.15 (37 °C).

On to AGACAGCAAUAUUACGGAAC, for which, under “37 °C”, the “self-splicing fitness (ln)” value was -1.4 ± 0.22.

In the case of GGCAAGCAAUAUUACGGGCC, under “30 °C”, the “self-splicing fitness (ln)” value is -2.85 ± 0.39.

Consider CGAUAGCAAUAUUACGACUA, for which the “self-splicing fitness (ln)” value was -1.8 ± 0.26 (30 °C) and -2.13 ± 0.23 (37 °C).

Consider UCCUAGCAAUAUUACGUGGC, for which the “self-splicing fitness (ln)” value was -3.85 ± 0.24 (30 °C) and -1.78 ± 0.2 (37 °C).

Consider GCAAAGCAAUAUUACGAUUU, for which the “self-splicing fitness (ln)” value reads like this: (30 °C) -0.938 ± 0.06; (37 °C) -0.449 ± 0.082.

For the sequence AUAAAGCAAUAUUACGGUAA, the “self-splicing fitness (ln)” value is -1.21 ± 0.077 (30 °C) and -0.709 ± 0.09 (37 °C).

Consider UUCCAGCAAUAUUACGCUCU, for which the “self-splicing fitness (ln)” value by setting is: (30 °C) -3.04 ± 0.17; (37 °C) -1.26 ± 0.14.

For GCACAGCAAUAUUACGGCCC, the “self-splicing fitness (ln)” value is, setting by setting: (30 °C) -0.235 ± 0.1; (37 °C) -0.615 ± 0.13.

Take UCGCAGCAAUAUUACGAGGG: the “self-splicing fitness (ln)” value (30 °C) is -2.72 ± 0.11 and the “self-splicing fitness (ln)” value (37 °C) was -1.65 ± 0.13.

For the sequence GAUGAGCAAUAUUACGACCU, the “self-splicing fitness (ln)” value runs as follows: (30 °C) -1.4 ± 0.18; (37 °C) -1.36 ± 0.16.

Regarding AUGAAGCAAUAUUACGUUAG, the “self-splicing fitness (ln)” value is -1.97 ± 0.08 (30 °C) and -0.415 ± 0.11 (37 °C).

On to ACGCAGCAAUAUUACGCGGC, for which the “self-splicing fitness (ln)” value (30 °C) was -3.37 ± 0.17 and the “self-splicing fitness (ln)” value (37 °C) is -3.06 ± 0.25.

For the sequence CGCCAGCAAUAUUACGGGGC, the “self-splicing fitness (ln)” value runs as follows: (30 °C) -4 ± 0.19; (37 °C) -2.55 ± 0.16.

In the case of UUCGAGCAAUAUUACGAGAG, the “self-splicing fitness (ln)” value was -3.55 ± 0.44 (30 °C) and -2.72 ± 0.48 (37 °C).

GGUAAGCAAUAUUACGACGG: the “self-splicing fitness (ln)” value (30 °C) was -3.74 ± 0.33 and the “self-splicing fitness (ln)” value (37 °C) is -2.84 ± 0.34.

As to CCGCAGCAAUAUUACGUAGC, the “self-splicing fitness (ln)” value (37 °C) was -0.697 ± 0.22.

On to CGCGAGCAAUAUUACGAGUA, for which the “self-splicing fitness (ln)” value is -3.55 ± 0.32 (30 °C) and -2.61 ± 0.27 (37 °C).

Regarding UCACAGCAAUAUUACGUUGC, the “self-splicing fitness (ln)” value (30 °C) was -4.42 ± 0.23 and the “self-splicing fitness (ln)” value (37 °C) was -2.95 ± 0.23.

Take ACAAAGCAAUAUUACGUAAC: the “self-splicing fitness (ln)” value is -3.21 ± 0.21 (30 °C) and -1.67 ± 0.14 (37 °C).

Consider GGGAAGCAAUAUUACGCAUC, for which the “self-splicing fitness (ln)” value was -2.36 ± 0.39 (30 °C) and -1.77 ± 0.32 (37 °C).

As to UCUGAGCAAUAUUACGGAGC, the “self-splicing fitness (ln)” value (30 °C) was -2.77 ± 0.21 and the “self-splicing fitness (ln)” value (37 °C) was -2.92 ± 0.2.

With ACUGAGCAAUAUUACGCUUA, the “self-splicing fitness (ln)” value (30 °C) is -3.12 ± 0.38 and the “self-splicing fitness (ln)” value (37 °C) is -1.88 ± 0.2.

UGAGAGCAAUAUUACGACAA: the “self-splicing fitness (ln)” value by setting is: (30 °C) -0.796 ± 0.32; (37 °C) -1.99 ± 0.43.

Turning to GACGAGCAAUAUUACGUCGU, the “self-splicing fitness (ln)” value reads like this: (30 °C) -3.59 ± 0.24; (37 °C) -2.34 ± 0.23.

With CGGUAGCAAUAUUACGUCGU, the “self-splicing fitness (ln)” value (30 °C) was -3.85 ± 0.22 and the “self-splicing fitness (ln)” value (37 °C) was -2.02 ± 0.24.

On to UGAAAGCAAUAUUACGUUAU, for which the “self-splicing fitness (ln)” value reads like this: (30 °C) -3.73 ± 0.19; (37 °C) -1.76 ± 0.11.

CUUGAGCAAUAUUACGAGUU: the “self-splicing fitness (ln)” value by setting is: (30 °C) -4.15 ± 0.23; (37 °C) -2.33 ± 0.17.

CGACAGCAAUAUUACGACUG: the “self-splicing fitness (ln)” value runs as follows: (30 °C) -1.32 ± 0.089; (37 °C) -0.0407 ± 0.14.

For AGCUAGCAAUAUUACGCACU, the “self-splicing fitness (ln)” value runs as follows: (30 °C) -1.19 ± 0.1; (37 °C) -0.466 ± 0.13.

For AAUCAGCAAUAUUACGGACA, the “self-splicing fitness (ln)” value runs as follows: (30 °C) -0.225 ± 0.077; (37 °C) -0.145 ± 0.091.

CGCGAGCAAUAUUACGACAU: the “self-splicing fitness (ln)” value is -3.853 ± 0.03 (30 °C) and -2.77 ± 0.043 (37 °C).

As for GACCAGCAAUAUUACGCAAC, the “self-splicing fitness (ln)” value is -1.35 ± 0.082 (30 °C) and -0.681 ± 0.1 (37 °C).

On to CGUGAGCAAUAUUACGGCAG, for which the “self-splicing fitness (ln)” value (30 °C) is -0.858 ± 0.11 and the “self-splicing fitness (ln)” value (37 °C) is -0.441 ± 0.14.

For CGCAAGCAAUAUUACGGGGU, the “self-splicing fitness (ln)” value by setting is: (30 °C) -4.04 ± 0.18; (37 °C) -1.33 ± 0.12.

In the case of CUUGAGCAAUAUUACGCCAU, the “self-splicing fitness (ln)” value runs as follows: (30 °C) -2.92 ± 0.22; (37 °C) -3.8 ± 0.46.

As to AUACAGCAAUAUUACGCGUG, the “self-splicing fitness (ln)” value is -0.923 ± 0.063 (30 °C) and -0.481 ± 0.082 (37 °C).

Regarding AGCCAGCAAUAUUACGUAGC, the “self-splicing fitness (ln)” value reads like this: (30 °C) -3.01 ± 0.14; (37 °C) -2.05 ± 0.15.

In the case of GAAAAGCAAUAUUACGCGUG, the “self-splicing fitness (ln)” value by setting is: (30 °C) -1.42 ± 0.065; (37 °C) -0.104 ± 0.078.

For UUGCAGCAAUAUUACGUAGG, the “self-splicing fitness (ln)” value is -0.924 ± 0.086 (30 °C) and -0.486 ± 0.11 (37 °C).

For CGAGAGCAAUAUUACGCUUC, the “self-splicing fitness (ln)” value runs as follows: (30 °C) -2.04 ± 0.37; (37 °C) -1.61 ± 0.31.

Regarding GCGGAGCAAUAUUACGAUAC, the “self-splicing fitness (ln)” value runs as follows: (30 °C) -1.78 ± 0.18; (37 °C) -2.35 ± 0.33.

Regarding AUAGAGCAAUAUUACGAACC, the “self-splicing fitness (ln)” value by setting is: (30 °C) -2.16 ± 0.14; (37 °C) -1.02 ± 0.14.

With UACCAGCAAUAUUACGCUUA, the “self-splicing fitness (ln)” value by setting is: (30 °C) -0.566 ± 0.056; (37 °C) -0.478 ± 0.07.

In the case of UGGAAGCAAUAUUACGGAUU, the “self-splicing fitness (ln)” value by setting is: (30 °C) -1.49 ± 0.08; (37 °C) -1.68 ± 0.12.

In the case of GCUAAGCAAUAUUACGCAGU, the “self-splicing fitness (ln)” value (30 °C) is -3.5 ± 0.24 and the “self-splicing fitness (ln)” value (37 °C) is -2.88 ± 0.31.

For UGCUAGCAAUAUUACGACGG, the “self-splicing fitness (ln)” value runs as follows: (30 °C) -0.768 ± 0.16; (37 °C) -0.44 ± 0.18.

CGCUAGCAAUAUUACGAGCC: the “self-splicing fitness (ln)” value by setting is: (30 °C) -1.23 ± 0.2; (37 °C) -0.554 ± 0.17.

For UGAGAGCAAUAUUACGAGGG, the “self-splicing fitness (ln)” value by setting is: (30 °C) -3.68 ± 0.35; (37 °C) -1.09 ± 0.36.

Regarding GUGUAGCAAUAUUACGAAGC, the “self-splicing fitness (ln)” value is -2.07 ± 0.17 (30 °C) and -0.684 ± 0.23 (37 °C).

Take AAAAAGCAAUAUUACGACAG: the “self-splicing fitness (ln)” value is -1.17 ± 0.066 (30 °C) and -0.774 ± 0.088 (37 °C).

In the case of ACUGAGCAAUAUUACGGGAC, the “self-splicing fitness (ln)” value (37 °C) is -1.43 ± 0.28.

Regarding GAUCAGCAAUAUUACGAACC, the “self-splicing fitness (ln)” value is -0.755 ± 0.19 (30 °C) and -1.48 ± 0.28 (37 °C).

On to UUCAAGCAAUAUUACGCUGA, for which the “self-splicing fitness (ln)” value is -2.5 ± 0.16 (30 °C) and -2.33 ± 0.21 (37 °C).

Take GGCGAGCAAUAUUACGGGUC: the “self-splicing fitness (ln)” value runs as follows: (30 °C) -1.2 ± 0.26; (37 °C) -1.81 ± 0.35.

In the case of GUACAGCAAUAUUACGUUGG, the “self-splicing fitness (ln)” value (30 °C) was -3.39 ± 0.21 and the “self-splicing fitness (ln)” value (37 °C) was -2.16 ± 0.15.
